Test [1] has as its target T1, Human Pancreatic Lipase (human, UniProt P16233 17-465, in ELISA and phage selections: biotin (EZ link NHS-biotin) on free NH2-groups, molar ratio biotin to lipase 15 to 1; not biotinylated in the enzyme activity assay).
T1 construct: mature; Natural enzyme purified from a human source; In ELISA it was captured as biotinylated HPL on coated streptavidin; also called HPL; biotinylated HPL
T1 sequence (looked up): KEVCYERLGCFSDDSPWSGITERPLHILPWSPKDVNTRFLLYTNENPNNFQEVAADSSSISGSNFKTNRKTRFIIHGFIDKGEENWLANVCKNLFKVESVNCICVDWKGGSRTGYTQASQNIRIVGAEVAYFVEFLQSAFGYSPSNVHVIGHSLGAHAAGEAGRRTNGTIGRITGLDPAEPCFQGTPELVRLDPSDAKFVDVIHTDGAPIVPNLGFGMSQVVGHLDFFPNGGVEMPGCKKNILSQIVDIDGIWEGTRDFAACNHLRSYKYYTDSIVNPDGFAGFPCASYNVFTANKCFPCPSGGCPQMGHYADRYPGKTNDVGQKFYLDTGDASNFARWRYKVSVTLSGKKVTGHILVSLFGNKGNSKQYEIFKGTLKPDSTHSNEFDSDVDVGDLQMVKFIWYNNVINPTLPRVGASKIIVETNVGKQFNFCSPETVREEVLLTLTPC
Description: ELISA, yeast culture medium on biotinylated HPL captured by streptavidin. As to the method:
For ELISA in vitro biotinylated HPL (prepared as described in paragraph 2.2) was immobilised indirectly via streptavidin. Streptavidin was coated at 5 µg/ml in Phosphate Buffered Saline (PBS) during two hours at room temperature in MAXISORB plates (NUNC). The coat solution was removed and, after washing with 0.05 vol % Tween-20 in PBS (PBST), the wells were blocked during 30 minutes at room temperature with a 4 wt % skimmed milk solution made in PBS. Biotinylated HPL was captured by the coated streptavidin during 16 hours at 4° C. from a solution with a concentration of 2.5 µg/ml enzyme in PBST, followed by washing of the plate with PBTS to remove free biotinylated HPL.
Two clones from each construct were grown for 24 hours at 30° C. in YNB medium (0.67% Yeast Nitrogen without amino acids (Difio)) containing 2% glucose. For V_HH gene expression both pre-cultures were diluted 1/10 in 1 ml of YPD medium (1% yeast extract, 2% peptone, 2% glucose, 2% galactose) for induction of the GAL7 promoter and grown during 48 hours at 30° C. using 8 wells culture plates for cultivation. The V_HH production in the medium fraction of these clones was examined by analysis on a Coomassie blue stained polyacrylamide gel. Their functional characteristics were confirmed in ELISA on indirectly immobilised biotinylated HPL and in the lipase enzyme activity assay.

The target in test [2] is T1, Human Pancreatic Lipase. In words: ELISA on biotinylated HPL, E. coli and yeast produced VHH. (An ELISA detects its analyte on a solid surface through an enzyme-linked reagent.)
Test [3] has as its target T1, Human Pancreatic Lipase. In words: phage display selection in solution with biotinylated HPL, capture on streptavidin beads. As to the method:
Free V_HH fragments were removed by precipitation of phage from the culture supernatant with PEG6000, thereby avoiding a disturbing competition between phage bound and free V_HH fragments. "In solution" capture of *E. coli* phage exposing HPL specific antibody fragments was performed with in vitro biotinylated lipase (EZ link NHS-biotin) covalently coupled to free NH_2-groups of the lipase according to the instructions of the supplier; the molar ratio between biotin and lipase was 15 to 1). For selection 15 nM and 40 nM Human Pancreatic Lipase was used in round one and 0.6 nM and 3 nM in round two. The carboxy terminal domain was prepared by proteolysis with chymotrypsin and purified with reversed phase HPLC. Lipase was biotinylated and used for selection of the immune library (combined short hinge and long hinge) at 15 and 70 nM during round one and at 1 and 3 and 15 nM during round two. During the binding phase of the selection "application conditions" (inclusion of 5.3 mM cholic acid and 36 mM deoxycholate) were used.

A further test deals with T2, protein A (UniProt P38507 37-477).
T2 construct: also called protein A sepharose (Pharmacia)
In words: affinity chromatography on protein A sepharose.

B1: HPL#15 (VHH)
VHH: QVQLQESGGGLVQAGGSLRLSCAASGSISSINVMGWFRQAPGKQRELVASITSGGSTNYADSLKGRFTISRDNAKNAVYLQMNNLKPEDTAVYYCNAHITPAGSSNYVYGYWGHGTKVTVSS
notes: Llama VHH; E. coli form (pUR5095): with hinge and myc-tag; Yeast forms: PstI/BstEII fragment, untagged (pUR1403) or with myc/His6 tags (pUR5097); also called anti-HPL VHH fragment HPL#15
For the molecule B1, the binding result with Human Pancreatic Lipase [1] is on record as “binds”.

B2: HPL#13 (VHH)
VHH: QVQLQESGGGLVQAGGSLRLSCAASGTILSIIYMDWYRQTPGKQRELVGRITAGGSTNYADSAKGRFTISKDNAKNTVYLQMNSLKPEDTAVYYCNALITRWDKSVNDYWGQGTQVTVSS
notes: Llama VHH; E. coli form (pUR5082): with hinge and myc-tag; Yeast forms: PstI/BstEII fragment, untagged (pUR5090) or with myc/His6 tags (pUR5098); also called anti-HPL VHH fragment HPL#13
For the molecule B2, the binding result in the test with Human Pancreatic Lipase [2] is reported as “binds”.

B3: HPL#18 (VHH)
VHH: QVQLQDSGGGLVQAGGSLRLSCAASGTIGDIYTMAWHRQAPGKERELVASATESGSPNYADPVKGRFTISRDNGKLTVYLQMNSLKPEDTAVYYCNALIRRKFTSEYNEYWGQGTQVTVSS
notes: Llama VHH; E. coli form (pUR5086): with hinge and myc-tag; Yeast forms: PstI/BstEII fragment, untagged (pUR5092) or with myc/His6 tags (pUR5263); also called anti-HPL18; αHPL18
B3: the binding result in the test with Human Pancreatic Lipase [1] was “binds”.

B4: HPL#11 (VHH)
VHH: QVQLQDSGGGLVQAGGSLRLSCAASGSIFSSDLMGWYRQAPGKEREAVARITRGGTTSYADSVKGRFTISRDNAKNTMYLQMNSLKPEDTAVYYCNARRSNYDRSWGDYWGQGTQVTVSS
notes: Llama VHH; E. coli form (pUR5084): VHH with hinge and C-terminal myc-tag; Yeast forms: PstI/BstEII VHH fragment, untagged (pUR5091) or with myc-tag and hexahistidine tail (pUR5099); also called anti-HPL VHH fragment HPL#11
For the molecule B4, the binding result with Human Pancreatic Lipase [3] is listed as “binds”.

B5: HPL#12 (VHH)
VHH: QVQLQESGGGLVQAGGSLRLSCAASGSIGSIHTMGWYRQTPGKERDVVATIQDGGSTNYADSVKGRFTISRDNTLNTVYLQMNDLKPEDTAVYYCNADVRPYRTSRYLEVWGQGTLVTVSS
notes: Llama VHH produced in E. coli from the phagemid, with hinge and C-terminal myc-tag; also called anti-HPL VHH fragment HPL#12
For the molecule B5, the binding result in the test with Human Pancreatic Lipase [3] was “binds”.

B6: HPL#14 (VHH)
VHH: QVQLQESGGGLVQAGGSLRLSCAASGSIGSIHTMGWYRQTPGTERDVVATIQDGGSTNYADSVKGRFTISRDNILNTVYLQMNSLKPEDTAVYHCNADVRPYRTSRYLELWGQGTLVTVSS
notes: Llama VHH; Yeast form (pUR5265): PstI/NotI fragment including the hinge region, followed by myc- and hexahistidine tags; also called anti-HPL VHH fragment HPL#14
In the case of B6, the binding result with Human Pancreatic Lipase [1] is on record as “binds”.

B7: HPL#19 (VHH)
VHH: QVQLQDSGGGLVQTGGSLRLSCAASGPIGDVYLMGWYRQAPGKQREMVASITATGPPNYTDSVKGRFTISRDNDKNTEYLQMNNLKPEDTAVYYCNAQVRVRFSSDYTNYWGQGTQVTVSSEPKTPKPQP
notes: Llama VHH; E. coli form (pUR5087): with hinge and myc-tag; Yeast forms: PstI/BstEII fragment, untagged (pUR5093) or with myc/His6 tags (pUR5264); also called anti-HPL VHH fragment HPL#19
As to B7, the binding result was “no binding” with protein A and “binds” in the test with Human Pancreatic Lipase [1].

The values above are taken from US7361741 (LIPTON DIVISION OF CONOPCO, dated 2008).
